According to publication doi:10.1101/2024.12.13.628402 (bioRxiv, 2024):

Biological target: T1, His6-YidC (E. coli, UniProt P25714 1-548)
T1 sequence (looked up): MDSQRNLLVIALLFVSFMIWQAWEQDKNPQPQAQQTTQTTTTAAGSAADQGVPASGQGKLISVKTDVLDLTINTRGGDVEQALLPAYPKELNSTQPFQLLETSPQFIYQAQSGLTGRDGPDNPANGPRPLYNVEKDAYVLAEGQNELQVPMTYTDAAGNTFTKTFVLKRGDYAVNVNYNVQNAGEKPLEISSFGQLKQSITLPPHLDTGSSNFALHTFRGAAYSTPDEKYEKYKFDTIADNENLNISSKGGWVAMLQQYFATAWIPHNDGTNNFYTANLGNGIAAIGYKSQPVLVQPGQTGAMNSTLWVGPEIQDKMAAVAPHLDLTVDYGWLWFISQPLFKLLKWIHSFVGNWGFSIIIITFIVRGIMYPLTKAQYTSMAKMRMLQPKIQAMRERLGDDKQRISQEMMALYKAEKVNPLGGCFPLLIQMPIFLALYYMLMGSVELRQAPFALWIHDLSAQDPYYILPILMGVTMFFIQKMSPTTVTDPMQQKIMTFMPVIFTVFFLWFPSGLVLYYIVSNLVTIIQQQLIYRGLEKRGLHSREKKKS
Assay: native gel or EMSA

binding result: binds
B1: YibN-His6 (natural protein, E. coli, UniProt P0AG27 1-143, looked up)
chain: MQEIMQFVGRHPILSIAWIALLVAVLVTTFKSLTSKVKVITRGEATRLINKEDAVVVDLRQRDDFRKGHIAGSINLLPSEIKANNVGELEKHKDKPVIVVDGSGMQCQEPANALTKAGFAQVFVLKEGVAGWAGENLPLVRGK
